Experimental data taken from US20250066490A1 (PROFOUNDBIO US, published 2025).

Experiments:
[1] = biological target: T1, human CD70 expressed on the cell surface of tumor cell lines (human, UniProt P32970 1-193); assay: cell-based or functional assay
T1 sequence (looked up): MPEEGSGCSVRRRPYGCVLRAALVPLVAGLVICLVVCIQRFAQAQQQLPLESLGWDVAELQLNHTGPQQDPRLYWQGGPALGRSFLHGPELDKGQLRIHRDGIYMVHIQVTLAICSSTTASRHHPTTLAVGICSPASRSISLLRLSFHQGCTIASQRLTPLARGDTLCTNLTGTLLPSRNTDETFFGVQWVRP

[2] = biological target: T1, human CD70 expressed on the cell …; assay: flow cytometry on U251 cells
Procedure: (§1) The lead antibodies were tested for binding to renal carcinoma cells and glioblastoma cells expressing CD70 on the cell surface by flow cytometry. […] U251 cells were cultured with MEM medium containing of 10% FBS and 1% NEAA+1 mM sodium pyruvate. DBTRG-05MG cells were cultured with DMEM medium (Gibco, Cat #C11995500BT) containing of 10% FBS. Each of the lead antibodies and the controls were incubated for 30 mins with the different cell lines (3×10⁵ cells per well) in 0.2 ml FACS buffer (1×PBS with 0.1% BSA) at 4° C. Then, the cells were pelleted, washed, and incubated at 4° C. for 30 mins with 100 μl of 1:200 diluted PE-conjugated anti human Fc (Abcam, Ab98596) in FACS buffer. The cells were pelleted again, washed with PBS, resuspended in FACS buffer and analyzed by flow cytometer (Beckman, CytoFLEX).
(§2) Antibodies 2H8 and 2D2 had slightly higher binding ability to the cell lines than that of antibody 69A7.

[3] = biological target: T2, cynomolgus CD70 recombinant protein (cynomolgus, UniProt A0A2K5WTU9 39-190); assay: ELISA, IgG titrated on coated cynomolgus CD70 recombinant protein (2 µg/ml), anti-human Fc-HRP, OD450
T2 construct: also called cyno-antigen; cynomolgus CD70 protein
T2 sequence: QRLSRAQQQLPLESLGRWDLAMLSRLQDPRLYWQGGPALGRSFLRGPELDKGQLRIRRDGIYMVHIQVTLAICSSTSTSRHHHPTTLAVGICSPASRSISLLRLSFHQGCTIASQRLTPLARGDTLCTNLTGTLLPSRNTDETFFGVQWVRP
Procedure: (§3) The binding specificity of the CD70 antibodies was tested by ELISA according to a standard protocol. Briefly, 96-well micro-plates were coated with 2 μg/ml of human or cynomolgus CD70 recombinant protein in PBS at 100 μl per well and incubated overnight at 4° C. The plates were washed twice with TBS+0.5% Tween20. 200 μL of blocking buffer (2% BSA in PBS) was added to each well, and the plates were incubated at 37° C. for 2 hours. The plates were washed using the wash buffer mentioned above. Serially diluted antibodies were added to the ELISA plates using 100 μl per well, and the plates were incubated for 1 hour at room temperature. Then plates were washed 3 times. HRP conjugated anti-human Fc antibody solution (Sigma, I18885-2ML, diluted with blocking buffer) was added to the plates using 100 μl per well. The plates were incubated at room temperature for 1 hour and then washed 3 times. Then the TMB solution was added to plates using 100 μl per well and the plates were placed at RT for 5-15 mins. Then the stop solution (2M H2SO4) was added using 50 μl per well. The absorbance was measured at A450 and A630.

[4] = biological target: T1, human CD70 expressed on the cell …; assay: flow cytometry on 786-O cells
Procedure: as §1, §2

[5] = biological target: T3, human CD70 extra-cellular domain (ECD) linked to His tag (human, UniProt P32970 39-193); assay: BLI (Octet RED), antibody on anti-human Fc tips, CD70 ECD-His at 100 nM
T3 construct: extracellular domain; also called Hu CD70; HU CD70; not shown: His tag
T3 sequence (looked up): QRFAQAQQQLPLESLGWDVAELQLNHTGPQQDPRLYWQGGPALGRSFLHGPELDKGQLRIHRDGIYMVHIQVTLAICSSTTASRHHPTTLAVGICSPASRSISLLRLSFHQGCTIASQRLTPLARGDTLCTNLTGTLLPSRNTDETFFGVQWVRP
Procedure: Recombinant proteins consisting of human, rat, or mouse CD70 extra-cellular domain (ECD) linked to His tag was purchased (from ACRO systems). 69A7 and 2E7 (20 nM) were immobilized on anti-human IgG Fc biosensor tips (ForteBio). Binding assays using one concentration (100 nM) of recombinant protein in solution were performed using Octet RED (ForteBio). Association time was set at 180s and dissociation time was set at 300s. Binding affinity was calculated using ForteBio Data Acquisition 6.3 software. Affinity was derived by fitting the kinetic data to a 1:1 Langmuir binding model utilizing global fitting algorithms. […] 2E7 had no cross-reactivity to rat or mouse CD70 (Table 10).

[6] = biological target: T1, human CD70 expressed on the cell …; assay: flow cytometry on DBTRG-05MG cells
Procedure: as §1, §2

[7] = biological target: T1, human CD70 expressed on the cell …; assay: flow cytometry on DBTRG-05MG cells, PE anti-human Fc, MFI; same fit as Table 6, which prints it in nM
Procedure: as §1, §2

[8] = biological target: T1, human CD70 expressed on the cell …; assay: flow cytometry on 786-O cells, PE anti-human Fc, MFI; same fit as Table 6, which prints it in nM
Procedure: as §1, §2

[9] = biological target: T1, human CD70 expressed on the cell …; assay: flow cytometry on Raji cells, PE anti-human Fc, MFI(PE); the text gives this EC50 only as about 19 nM
Procedure: Binding activity of 2E7 or the isotype control with a target cell line (Raji) or a cell line (MCF-7) that has negligible level of CD70 expression were evaluated by flow cytometry (Beckman, Cytoflex). 3×10⁵ cells per well were seeded on a 96-well V-bottomed plate and incubated with 100 μl of 2E7 in serial dilutions. After 30 min incubation at 4° C., cells were washed twice with PBS, stained with 100 μl of 1:200 diluted PE-conjugated anti-human Fc in FACS buffer (1×PBS containing 1% BSA), then incubated at 4° C. for 30 min. Cells were finally washed two times with PBS and analyzed by flow cytometric analysis.

[10] = biological target: T4, human CD70 recombinant protein (human, UniProt P32970 39-193, limits assumed); assay: ELISA, coated human CD70, IgG titrated
T4 construct: May be the same reagent as ACRO CDL-H5246; also called CD70 protein
T4 sequence (looked up): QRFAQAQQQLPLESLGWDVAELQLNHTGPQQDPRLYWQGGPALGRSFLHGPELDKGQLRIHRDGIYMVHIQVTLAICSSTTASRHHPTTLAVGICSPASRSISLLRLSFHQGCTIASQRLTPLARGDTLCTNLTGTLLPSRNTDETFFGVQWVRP
Procedure: as §3

- Internalization rate (%) on 786-O [1]: 62%
- Internalization rate (%) on Caki-1 [1]: 51%
- EC50 [2]: 4.03 nM
- EC50 [3]: 0.00401 mg/L
- EC50 [4]: 2.69 nM
- Kd [5]: 0.979 nM
- koff [5]: 0.000357 s⁻¹
- kon [5]: 365000 M⁻¹ s⁻¹
- EC50 [6]: 6.11 nM
- EC50 [7]: 0.917 mg/L
- EC50 [8]: 0.403 mg/L
- EC50 [9]: 2.98 mg/L
- EC50 ratio against antibody 69A7 [10]: 1.5 times
B1: 2E7, full IgG (antibody, V domains shown)
VH: QVQLQESGPGLVKPSETLSLTCTVSGGSVSSDYYYWSWIRQPPGKGLEWLGYIYYSGSTNYNPSLKSRVTISVDTSKNQFSLKLRSVTTADTAVYYCARGDGDFLGVCFDYWGQGTLVTVSS
VL: EIVLTQSPATLSLSPGERATLSCRASQSVSSYLAWYQQKPGQAPRLLIFDASNRATGIPARFSGSGSGTDFTLTISSLEPEDFAVYYCQQRSNWPLTFGGGTKVEIK
